Data as given in US20210347873A1 (SHANGHAI PHARMAEXPLORER, published 2021).
Blank lines part the entries; values can stand above or below the molecule they belong to.

Legend:
[1] = target: hBLyS-ECD (His-tagged extracellular domain of human BLyS protein, Ala134-Leu285) (human) (UniProt Q9Y275); assay: cell-based or functional assay
[2] = target: biotinylated hBLyS-ECD (human) (UniProt Q9Y275); assay: blocking ELISA: biotinylated hBLyS-ECD on coated BAFF R, antibody 0.8 nM
[3] = target: biotinylated hBLyS-ECD (human) (UniProt Q9Y275); assay: blocking ELISA: biotinylated hBLyS-ECD on coated BAFF R, antibody 0.16 nM
[4] = target: cynomolgus BLyS (full length, arginine to histidine at position 132) on CHO-K1 cells (cynomolgus); assay: flow cytometry, CHO-K1 cynoBLyS cells, antibody 0.00427 nM
Sequence of cynomolgus BLyS (full length, arginine to histidine at position 132) on CHO-K1 cells (cynomolgus) (Q9Y275 other isoform, or with tags, fused parts or gaps limits assumed): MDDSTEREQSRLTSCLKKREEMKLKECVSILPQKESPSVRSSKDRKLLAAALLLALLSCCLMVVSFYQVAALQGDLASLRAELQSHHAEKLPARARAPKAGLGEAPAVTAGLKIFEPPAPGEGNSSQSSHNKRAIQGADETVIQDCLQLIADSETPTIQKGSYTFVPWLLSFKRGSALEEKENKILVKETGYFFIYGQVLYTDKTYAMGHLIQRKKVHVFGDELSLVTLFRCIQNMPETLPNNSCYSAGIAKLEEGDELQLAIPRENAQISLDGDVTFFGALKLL

[5] = target: biotinylated hBLyS-ECD (human) (UniProt Q9Y275); assay: ELISA, biotinylated hBLyS-ECD captured on streptavidin; antibody 13.3 nM
[6] = target: human BLyS (full length, arginine to histidine at position 132) on CHO-K1 cells (human) (UniProt Q9Y275); assay: flow cytometry, CHO-K1 hBLyS cells, antibody 13.3 nM
Sequence of human BLyS (full length, arginine to histidine at position 132) on CHO-K1 cells (human) (Q9Y275 whole entry R130H): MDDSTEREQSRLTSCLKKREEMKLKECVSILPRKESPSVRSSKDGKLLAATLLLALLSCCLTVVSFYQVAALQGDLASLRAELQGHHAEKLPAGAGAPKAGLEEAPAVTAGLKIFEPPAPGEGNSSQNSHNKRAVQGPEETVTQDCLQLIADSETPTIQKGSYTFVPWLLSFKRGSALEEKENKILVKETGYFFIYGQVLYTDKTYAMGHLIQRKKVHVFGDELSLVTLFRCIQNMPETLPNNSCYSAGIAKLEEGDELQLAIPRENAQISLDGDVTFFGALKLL

[7] = target: human BLyS (full length, arginine to histidine at position 132) on CHO-K1 cells (human) (UniProt Q9Y275); assay: flow cytometry, CHO-K1 hBLyS cells, antibody 2.67 nM
[8] = target: cynomolgus BLyS (full length, arginine to histidine at position 132) on CHO-K1 cells (cynomolgus); assay: flow cytometry, CHO-K1 cynoBLyS cells, antibody 2.67 nM
[9] = target: biotinylated hBLyS-ECD (human) (UniProt Q9Y275); assay: blocking ELISA: biotinylated hBLyS-ECD on coated BAFF R, antibody 4 nM
[10] = target: biotinylated hBLyS-ECD (human) (UniProt Q9Y275); assay: ELISA, biotinylated hBLyS-ECD captured on streptavidin; antibody 0.534 nM
[11] = target: extracellular domain of human BLyS protein (hBLyS-ECD), His-tagged, Ala134-Leu285 (human) (UniProt Q9Y275); assay: cell-based or functional assay
[12] = target: His-tagged extracellular domain of human BLyS protein (hBLyS-ECD), Ala134-Leu285 (human) (UniProt Q9Y275); assay: cell-based or functional assay
[13] = target: biotinylated hBLyS-ECD (human) (UniProt Q9Y275); assay: ELISA on captured biotinylated hBLyS-ECD; control antibody 0 nM (background)
[14] = target: biotinylated hBLyS-ECD (human) (UniProt Q9Y275); assay: BAFF R-coated ELISA, biotinylated hBLyS-ECD bound in presence of control antibody 0.032 nM
[15] = target: biotinylated hBLyS-ECD (human) (UniProt Q9Y275); assay: ELISA on captured biotinylated hBLyS-ECD; control antibody 2.67 nM
[16] = target: biotinylated hBLyS-ECD (human) (UniProt Q9Y275); assay: ELISA on captured biotinylated hBLyS-ECD; control antibody 0.0213 nM
[17] = target: biotinylated hBLyS-ECD (human) (UniProt Q9Y275); assay: BAFF R-coated ELISA, biotinylated hBLyS-ECD bound in presence of control antibody 0.032 nM; remark: listed apart in the source
[18] = target: biotinylated hBLyS-ECD (human) (UniProt Q9Y275); assay: BAFF R-coated ELISA, biotinylated hBLyS-ECD bound in presence of control antibody 100 nM
[19] = target: T1, extracellular domain of human BLyS protein (hBLyS-ECD), His-tagged, Ala134-Leu285 (human, UniProt Q9Y275 134-285); assay: SPR (Biacore), antibody captured by anti-human Fc, hBLyS-ECD as analyte
T1 construct: Expressed in HEK293 cells and purified on a Ni column; also called immunogen

[20] = target: T2, biotinylated hBLyS-ECD (human, UniProt Q9Y275 134-285, biotinylated with Biotin-X-X-NHS (molar ratio 7:1); sites not stated); assay: BAFF R-coated ELISA, biotinylated hBLyS-ECD bound in presence of antibody 4 nM
T2 construct: also called biotinylated immunogen; biotinylated hBLvS-ECD

[21] = target: T2, biotinylated hBLyS-ECD; assay: BAFF R-coated ELISA, biotinylated hBLyS-ECD bound in presence of antibody 20 nM
[22] = target: T2, biotinylated hBLyS-ECD; assay: ELISA on captured biotinylated hBLyS-ECD; antibody 0.107 nM
[23] = target: T2, biotinylated hBLyS-ECD; assay: ELISA on captured biotinylated hBLyS-ECD; antibody 0.0213 nM
[24] = target: T1, extracellular domain of human BLyS …; assay: cell-based or functional assay

Molecule: mIgG Control (antibody)
mouse B lymphocyte proliferation (OD450 nm), antibody 0 nM [1]: 2730 OD450 nm | mouse B lymphocyte proliferation (OD450 nm), antibody 0.000256 nM [1]: 3130 OD450 nm | mouse B lymphocyte proliferation (OD450 nm), antibody 0.00128 nM [1]: 3880 OD450 nm | mouse B lymphocyte proliferation (OD450 nm), antibody 0.0064 nM [1]: 3700 OD450 nm | mouse B lymphocyte proliferation (OD450 nm), antibody 0.032 nM [1]: 4010 OD450 nm | mouse B lymphocyte proliferation (OD450 nm), antibody 0.16 nM [1]: 4020 OD450 nm | mouse B lymphocyte proliferation (OD450 nm), antibody 0.8 nM [1]: 3950 OD450 nm | mouse B lymphocyte proliferation (OD450 nm), antibody 4 nM [1]: 3100 OD450 nm | mouse B lymphocyte proliferation (OD450 nm), antibody 20 nM [1]: 2590 OD450 nm | mouse B lymphocyte proliferation (OD450 nm), antibody 100 nM [1]: 3400 OD450 nm | OD450 nm [2]: 1.4 OD450 nm | OD450 nm [3]: 1.47 OD450 nm | MFI [4]: 20.4 MFI | OD450 nm [5]: 0.0627 | MFI [6]: 31.7 MFI | MFI [7]: 31 MFI | MFI [8]: 21.2 MFI | OD450 nm [9]: 1.41 OD450 nm | OD450 nm [10]: 0.0594

B1: c8E7D9C7F5 (antibody, V domains shown)
VH: QVQLQQSGVELARPGASVKLSCKASGYTFTSYGISWVKQRTGQALEWIGEIYPRSGNTYYNEKFKGKATLTADKSSSTAYMELRSLTSEDSAVYFCARSGPITTLVATDYGMDYWGQGTSVTVSS
VL: DIVLTQSPASLAVSLGQRATISCRASKSVSTSSYSYMHWYQQKPGQPPKLLIKFASNLESGVPARFSGSGSGTDFTLNIHPVEEEDAATYYCQHSREFPYTFGGGTKLEIK
notes: also called chimeric antibody c8E7D9C7F5
Kd [19]: 2.38 nM | koff [19]: 0.00109 s⁻¹ | kon [19]: 456000 M⁻¹ s⁻¹ | OD450 nm [20]: 1.04 OD450 nm | OD450 nm [21]: 0.66 OD450 nm | OD450 nm [22]: 1.28 OD450 nm | OD450 nm [23]: 0.508 OD450 nm

Now from value to molecule, other results behind:

OD450 nm (as headed), mouse B lymphocyte proliferation; control antibody 0 nM [11]: 4390 | OD450 nm (as headed), mouse B lymphocyte proliferation; control antibody 0.000256 nM [11]: 4940 | OD450 nm (as headed), mouse B lymphocyte proliferation; control antibody 0.00128 nM [11]: 4690 | OD450 nm (as headed), mouse B lymphocyte proliferation; control antibody 0.0064 nM [11]: 5070 | OD450 nm (as headed), mouse B lymphocyte proliferation; control antibody 0.032 nM [11]: 5120 | OD450 nm (as headed), mouse B lymphocyte proliferation; control antibody 0.16 nM [11]: 5370 | OD450 nm (as headed), mouse B lymphocyte proliferation; control antibody 0.8 nM [11]: 5040 | OD450 nm (as headed), mouse B lymphocyte proliferation; control antibody 4 nM [11]: 5100 | OD450 nm (as headed), mouse B lymphocyte proliferation; control antibody 20 nM [11]: 4930 | OD450 nm (as headed), mouse B lymphocyte proliferation; control antibody 100 nM [11]: 4880 | Proportion of B lymphocytes in splenocytes (%), in vivo in mice [11]: 51% | IgA Conc. in mouse serum, mice given hBLyS-ECD and antibody (in vivo neutralisation) [12]: 387 µg/mL | Proportion of B lymphocytes in splenocytes (%), mice given hBLyS-ECD and antibody (in vivo neutralisation) [12]: 39.7% | OD450 nm [2]: 1.14 OD450 nm | OD450 nm [3]: 1.08 OD450 nm | OD450 nm [13]: 0.0731 OD450 nm | MFI [4]: 22 MFI | OD450 nm [14]: 1.99 OD450 nm | OD450 nm [5]: 0.102 | OD450 nm [15]: 0.237 OD450 nm | MFI [6]: 35.1 MFI | OD450 nm [16]: 0.0887 OD450 nm | MFI [7]: 33.1 MFI | OD450 nm [17]: 1.84 OD450 nm | MFI [8]: 22.7 MFI | OD450 nm [9]: 1.09 OD450 nm | OD450 nm [10]: 0.0916 | OD450 nm [18]: 2.2 OD450 nm
Molecule: hIgG Control (antibody)
mouse B lymphocyte proliferation stimulated by hBLyS-ECD (viable cell signal) at 0 nM antibody (OD450 nm (as headed)) [12]: 3570 | mouse B lymphocyte proliferation stimulated by hBLyS-ECD (viable cell signal) at 0.000256 nM antibody [12]: 3970 | mouse B lymphocyte proliferation stimulated by hBLyS-ECD (viable cell signal) at 0.00128 nM antibody (OD450 nm (as headed)) [12]: 3860 | mouse B lymphocyte proliferation stimulated by hBLyS-ECD (viable cell signal) at 0.0064 nM antibody (OD450 nm (as headed)) [12]: 3730 | mouse B lymphocyte proliferation stimulated by hBLyS-ECD (viable cell signal) at 0.032 nM antibody (OD450 nm (as headed)) [12]: 3920 | mouse B lymphocyte proliferation stimulated by hBLyS-ECD (viable cell signal) at 0.16 nM antibody (OD450 nm (as headed)) [12]: 4200 | mouse B lymphocyte proliferation stimulated by hBLyS-ECD (viable cell signal) at 0.8 nM antibody (OD450 nm (as headed)) [12]: 4290 | mouse B lymphocyte proliferation stimulated by hBLyS-ECD (viable cell signal) at 4 nM antibody (OD450 nm (as headed)) [12]: 4430 | mouse B lymphocyte proliferation stimulated by hBLyS-ECD (viable cell signal) at 20 nM antibody (OD450 nm (as headed)) [12]: 4700 | mouse B lymphocyte proliferation stimulated by hBLyS-ECD (viable cell signal) at 100 nM antibody (OD450 nm (as headed)) [12]: 3720

Kd [19]: 0.446 nM | koff [19]: 7.34e-05 s⁻¹ | kon [19]: 165000 M⁻¹ s⁻¹ | OD450 nm [20]: 1.07 OD450 nm | OD450 nm [21]: 0.717 OD450 nm | OD450 nm [22]: 1.19 OD450 nm | OD450 nm [23]: 0.374 OD450 nm | Proportion of B lymphocytes in splenocytes (%), in vivo in mice [24]: 28.2%
B2: c97A3C2H4 (antibody, V domains shown)
VH: EVKLVESGGGLVQPGGSLKLSCAASGFTFSTYTMSWVRQTPEKRLEWVAYISYGGGSTSYPDTVKGRFTISRDNAKNTLYLQMSSLKSEDTAIYYCTRHVTVVENSMDYWGQGTSVTVSS
VL: DILLTQSPDILSVSPGERVSFSCRASQSIGTSIHWYQQRTNGSPRLLIKYVSESFSGTPSRFSGSGSGTAFTLTINSVESEDIADYYCQQTHSWPWTFGGGTKLEIK
notes: also called chimeric antibody c97A3C2H4
